Measured values taken from article PMC8421416, “Structure of the native pyruvate dehydrogenase complex reveals the mechanism of substrate insertion” (Nature Communications, 2021).
Blank lines part the entries; values can stand above or below the molecule they belong to.

B1: dihydrolipoyl transacetylase (E2p) of the E. coli pyruvate dehydrogenase complex (enzyme, E. coli K12, UniProt P06959 1-630, looked up)
chain: MAIEIKVPDIGADEVEITEILVKVGDKVEAEQSLITVEGDKASMEVPSPQAGIVKEIKVSVGDKTQTGALIMIFDSADGAADAAPAQAEEKKEAAPAAAPAAAAAKDVNVPDIGSDEVEVTEILVKVGDKVEAEQSLITVEGDKASMEVPAPFAGTVKEIKVNVGDKVSTGSLIMVFEVAGEAGAAAPAAKQEAAPAAAPAPAAGVKEVNVPDIGGDEVEVTEVMVKVGDKVAAEQSLITVEGDKASMEVPAPFAGVVKELKVNVGDKVKTGSLIMIFEVEGAAPAAAPAKQEAAAPAPAAKAEAPAAAPAAKAEGKSEFAENDAYVHATPLIRRLAREFGVNLAKVKGTGRKGRILREDVQAYVKEAIKRAEAAPAATGGGIPGMLPWPKVDFSKFGEIEEVELGRIQKISGANLSRNWVMIPHVTHFDKTDITELEAFRKQQNEEAAKRKLDVKITPVVFIMKAVAAALEQMPRFNSSLSEDGQRLTLKKYINIGVAVDTPNGLVVPVFKDVNKKGIIELSRELMTISKKARDGKLTAGEMQGGCFTISSIGGLGTTHFAPIVNAPEVAILGVSKSAMEPVWNGKEFVPRLMLPISLSFDHRVIDGADGARFITIINNTLSDIRRLVM
modifications: lipoylated residues K41, K144 and K245 (mass spectrometry); dihydrolipoyllysine modelled at K245 in the structure
notes: dihydrolipoyl transacetylase (E2p), aceF gene, E. coli strain K12; native full-length protein, modelled catalytic domain starts at P384; It was modelled as the innermost one (K245), from PDB 1qjo; also called dihydrolipoyl acyltransferase; E2p core; source: endogenous, E. coli K12; copies: 24

Assays:
[1] = target: T1, dihydrolipoyl transacetylase (E2p) core of E. coli PDHc (Escherichia coli, UniProt P06959); experiment: cryo-EM structure, […] A; type: binding; conditions: covalent: moiety attached by amide bond to K245 of the lipoyl domain of the same protein (dihydrolipoyllysine), not the free amide; bound in E2p active site channel; no CoA; reduced state modelled, ox
T1 construct: gene aceF; native full-length E2p in native PDHc; catalytic domain modelled from P384 plus one lipoyl domain (averaged, modelled as innermost, K245); octahedral 24-mer
T1 sequence (P06959 2-630): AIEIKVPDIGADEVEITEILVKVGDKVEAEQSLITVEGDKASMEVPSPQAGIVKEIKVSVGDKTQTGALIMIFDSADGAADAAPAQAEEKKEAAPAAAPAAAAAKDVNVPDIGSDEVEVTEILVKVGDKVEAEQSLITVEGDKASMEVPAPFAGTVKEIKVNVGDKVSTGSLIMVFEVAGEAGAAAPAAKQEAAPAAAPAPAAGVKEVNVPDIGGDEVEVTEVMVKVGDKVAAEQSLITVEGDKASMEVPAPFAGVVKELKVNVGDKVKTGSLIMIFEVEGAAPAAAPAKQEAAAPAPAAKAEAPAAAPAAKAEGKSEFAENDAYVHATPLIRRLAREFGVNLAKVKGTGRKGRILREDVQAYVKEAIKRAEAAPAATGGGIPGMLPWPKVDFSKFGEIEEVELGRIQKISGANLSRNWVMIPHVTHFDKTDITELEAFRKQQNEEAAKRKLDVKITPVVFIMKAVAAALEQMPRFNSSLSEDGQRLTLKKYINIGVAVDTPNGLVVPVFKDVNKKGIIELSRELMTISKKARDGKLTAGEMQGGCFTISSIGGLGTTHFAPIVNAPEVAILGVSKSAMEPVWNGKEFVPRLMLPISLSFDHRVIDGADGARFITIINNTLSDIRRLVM

[2] = target: T2, pyruvate dehydrogenase (E1p) of the E. coli pyruvate dehydrogenase complex (E. coli K12 (endogenous), UniProt P0AFG8 1-887); experiment: cryo-EM structure; whole native PDHc (approx. 4.5 MDa) isolated from E. coli K12; low-resolution reconstruction without symmetry; 2D classes of the outer shell after subtraction of the E2p core; conditions: both partners purified
T2 construct: pyruvate dehydrogenase E1 component (E1p), E. coli K12, endogenous subunit of the native PDHc; source: endogenous, E. coli K12
T2 sequence (P0AFG8 whole entry, one chain of several): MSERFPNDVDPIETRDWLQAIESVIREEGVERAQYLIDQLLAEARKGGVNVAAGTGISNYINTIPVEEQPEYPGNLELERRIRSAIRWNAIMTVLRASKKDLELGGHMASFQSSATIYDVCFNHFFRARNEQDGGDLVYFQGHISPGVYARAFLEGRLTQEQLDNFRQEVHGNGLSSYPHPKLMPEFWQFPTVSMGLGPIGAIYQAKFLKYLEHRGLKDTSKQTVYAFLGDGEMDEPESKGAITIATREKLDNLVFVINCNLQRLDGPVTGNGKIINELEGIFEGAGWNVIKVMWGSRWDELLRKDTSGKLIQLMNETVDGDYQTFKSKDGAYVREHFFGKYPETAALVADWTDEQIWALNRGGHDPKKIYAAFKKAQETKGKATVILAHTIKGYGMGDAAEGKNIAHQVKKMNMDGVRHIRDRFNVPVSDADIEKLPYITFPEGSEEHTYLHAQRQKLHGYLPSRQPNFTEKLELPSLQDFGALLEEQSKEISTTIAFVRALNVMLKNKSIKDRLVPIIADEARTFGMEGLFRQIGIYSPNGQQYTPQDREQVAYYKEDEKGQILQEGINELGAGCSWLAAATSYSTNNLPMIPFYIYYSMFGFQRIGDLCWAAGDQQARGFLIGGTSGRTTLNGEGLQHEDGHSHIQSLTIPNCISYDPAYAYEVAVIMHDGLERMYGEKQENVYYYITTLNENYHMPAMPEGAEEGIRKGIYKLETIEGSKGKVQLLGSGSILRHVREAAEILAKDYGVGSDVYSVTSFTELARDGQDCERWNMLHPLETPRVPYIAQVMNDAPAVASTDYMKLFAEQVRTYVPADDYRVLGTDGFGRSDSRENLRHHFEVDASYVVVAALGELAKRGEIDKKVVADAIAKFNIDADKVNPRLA

[3] = target: the molecule itself; experiment: cryo-EM structure; native E2p core of PDHc isolated from E. coli K12, resting state without substrates; 20 mM Hepes pH 7.5, 150 mM NaCl; O symmetry imposed, 3.16 Å
[4] = target: B1; experiment: cryo-EM structure; whole native PDHc (approx. 4.5 MDa) isolated from E. coli K12; low-resolution reconstruction without symmetry; 2D classes of the outer shell after subtraction of the E2p core; conditions: both partners purified

Molecule: NC(=O)CCCC[C@@H](S)CCS [dihydrolipoamide]
cryo-EM structure, 3.16 A [1]: we modeled the prosthetic group as dihydrolipoamide, i.e., the product of the E2p-catalyzed reaction

Molecule: B1
binding result [2]: binds
stoichiometry N [3]: 24

binding result [4]: binds
B2: dihydrolipoyl dehydrogenase (E3) of the E. coli pyruvate dehydrogenase complex (enzyme, E. coli K12 (endogenous), UniProt P0A9P0 1-474, looked up)
chain: MSTEIKTQVVVLGAGPAGYSAAFRCADLGLETVIVERYNTLGGVCLNVGCIPSKALLHVAKVIEEAKALAEHGIVFGEPKTDIDKIRTWKEKVINQLTGGLAGMAKGRKVKVVNGLGKFTGANTLEVEGENGKTVINFDNAIIAAGSRPIQLPFIPHEDPRIWDSTDALELKEVPERLLVMGGGIIGLEMGTVYHALGSQIDVVEMFDQVIPAADKDIVKVFTKRISKKFNLMLETKVTAVEAKEDGIYVTMEGKKAPAEPQRYDAVLVAIGRVPNGKNLDAGKAGVEVDDRGFIRVDKQLRTNVPHIFAIGDIVGQPMLAHKGVHEGHVAAEVIAGKKHYFDPKVIPSIAYTEPEVAWVGLTEKEAKEKGISYETATFPWAASGRAIASDCADGMTKLIFDKESHRVIGGAIVGTNGGELLGEIGLAIEMGCDAEDIALTIHAHPTLHESVGLAAEVFEGSITDLPNPKAKKK
notes: dihydrolipoyl dehydrogenase (E3), E. coli K12, endogenous subunit of the native PDHc; source: endogenous, E. coli K12
